Data on six molecules can be found in patent publication EP4218932A2 (GammaDelta Therapeutics Limited, dated 2023).

B1: 1245_P01_G06 (antibody, V domains shown)
VH: QVQLVESGGGLVKPGGSLRLSCAASGFTFSDYYMSWIRQAPGKGLEWVSYISSSGSTIYYADSVKGRFTISRDNAKNSLYLQMNSLRAEDTAVYYCARHSWNDAFDVWGQGTLVTVSS
VL: not shown
B2: 1245_P01_E07 (antibody, human IgG1, V domains shown)
VH: QVQLVESGGGLVKPGGSLRLSCAASGFTFSDYYMSWIRQAPGKGLEWVSYISSSGSTIYYADSVKGRFTISRDNAKNSLYLQMNSLRAEDTAVYYCARVDYADAFDIWGQGTLVTVSS
VL: DIQMTQSPSSLSASVGDRVTIACRAGQSIGTYLNWYQQKPGKAPKLLIYVASSLQSGVPSRFSGSGSGTEFTLTISSLQPEDFATYYCQQSYSTLLTFGRGTKVEIK
B3: 1245_P02_G04 (antibody, human IgG1, V domains shown)
VH: QVQLQQSGPGLVKPSQTLSLTCAISGDSVSSKSAAWNWIRQSPSRGLEWLGRTYYRSKWSTDYAASVKSRITINPDTSKNQLSLQLNSVTPEDTAVYYCARTWSGYVDVWGQGTLVTVSS
VL: DIQMTQSPPALSASVGDRVTITCRASQDINDWLAWYQHKPGKAPKLLIYDASSLESGVPSRFSGSGSGTEFTLTISSLQPDDFATYYCQQSYSTPQVTFGQGTRLEIK
B4: 1252_P01_C08 (antibody, human IgG1, V domains shown)
VH: EVQLLESGGGLVQPGRSLRLSCAASGFTVSSNYMSWVRQAPGKGLEWVSVIYSGGSTYYADSVKGRFTISRDNSKNTLYLQMNSLRAEDTAVYYCASPIELGAFDIWGQGTLVTVSS
VL: SSYELTQPPSVSVAPGKTARITCGGNNIGSQSVHWYQQKPGQAPMLVIYYDSDRPSGIPERFSGSNSGNTATLTISRVEAGDEADYYCQVWDSSSDHVVFGGGTKLTVL
B5: 1139_P01_E04 (antibody, human IgG1, V domains shown)
VH: QVQLQQSGPGLVKPSQTLSLTCAISGDSVSSNSAAWNWIRQSPSRGLEWLGRTYYRSKWYNDYAVSVRSRITINPDTSKNQFSLQLNSVTPEDTAVYYCARSWNDAFDIWGQGTTVTVSS
VL: DIVMTQSPSTLSASIGDRVTITCRAGQSISTWLAWYQQKPGKAPKLLIYDASSLESGVPLRFSGSGSGTDFTLTISSLQPEDFATYYCQQSYSTPLTFGGGTKVEIK
B6: 1245_P01_G09 (antibody, human IgG1, V domains shown)
VH: QVQLQQSGPGLVKPSQTLSLTCAISGDSVSSNSAAWNWIRQSPSRGLEWLGRTYYGSKWYNEYALSVKSRIIINPDTSKNQFSLQLNSVTPEDTAVYYCARDYYYSMDVWGQGTLVTVSS
VL: DIVMTQSPSTLSASIGDRVTITCRAGQSISTWLAWYQQKPGKAPKLLIYDASSLESGVPLRFSGSGSGTEFTLAISSLQPDDFATYYCQQSYSTPVTFGQGTKVEIK

The target in this assay is Vδ1 chain of the γδ TCR on Vδ1+ γδ T cells (human). Put plainly: cell-based or functional assay.
Take B1: the “T cell degranulation (EC50 µg/ml - 3 donors)” value (from here on “T cell degranulation”) was 0.001 µg/mL. For the molecule B2, the “Killing assay (EC50 µg/ml - 2 or 3 donors)” value (“Killing assay” for short) was 0.06 µg/mL.

For the molecule B3, the “Killing assay” value came to 0.1 µg/mL and the “T cell degranulation” value worked out at 0.002 µg/mL. As for B4, the “Killing assay” value was determined as 0.02 µg/mL. As for B5, the “T cell degranulation” value is 0.005 µg/mL. Still for that read-out and setting: for B6 the value was 0.001 µg/mL.
